PMC12377726 (Proceedings of the National Academy of Sciences of the …, 2025)

B1: G001_gp1_V07_VRC01c_99 (antibody, V domains shown)
VH: QVQLVQSGAEVKKPGASVKVSCKASGYTFTDYYMHWVRQAPGQGLEWMGWINPNSGGTNYAQKFQGRVTMTRDTSISTAYMDLSRLRSDDTAMYYCATSPHEYSTSWEFDSWGQGTLVTVSS
VL: DIVLTQSPGTLSLSPGERATLSCRASQSVSSSNLAWYQQKPGQAPRLLIYGAFKRATGIPDRFSGSGSGTDFTLTISRLEPEDFAVYYCQQYETFGQGTKVEIK
B2: G001_gp1_V07_VRC01c_91 (antibody, V domains shown)
VH: QVQLVQSGAEVKKPGASVKVSCKASGYTFTDYYIHWVRQAPGQGLEWMGWISPNSGGTNFAQKFQGSVTMTRDTSISTAYMELSRLRSDDTAVYFCARDGGWKRGWGFQFWGQGTLVTVSS
VL: QSALTQPPSASGSPGQSVTISCTGTSSDVGDYKYVSWYQQHPGKAPKLVIYEVSKRPSGVPDRFSGSKSGNTASLTVSGLQAEDEADYYCSSYEVFGGGTKLTVL
B3: G001_gp1_V07_VRC01c_90 (antibody, V domains shown)
VH: QVQLVQSGAEVKKPGASVKVSCKASGYTFTDYYMHWVRQAPGQGLEWMGWINPNSGGTNYAQKFQGRVTMTRDTSISTAYVVLTRLRSDDTAVYYCATVEWGGSGWNYDYWGQGTLVTVSS
VL: EIVMTQSPATLSVSPGERATLSCRASQSVSSNLAWYQQKPGQAPRLLIYGASTRATGIPARFSGSGSGTEFTLTISSLQSEDFAVYYCQQYETFGQGTKVEIK
B4: G001_gp1_V07_VRC01c_94 (antibody, V domains shown)
VH: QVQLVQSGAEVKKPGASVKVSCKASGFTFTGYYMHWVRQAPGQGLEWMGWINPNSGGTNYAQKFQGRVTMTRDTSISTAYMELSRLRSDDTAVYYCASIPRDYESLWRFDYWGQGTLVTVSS
VL: EIVMTQSPATLSVSPGERATLSCRASQSVSSNLAWYQQKPGQAPRLLIYGASTRATGIPARFSGSGSGTEFTLTISSLQSEDFAVYYCQQYNTFGQGTRLEIK
B5: G001_gp1_V07_VRC01c_2021-0048 (antibody, V domains shown)
VH: RVQLVQSGAEVKKPGASVKVSCKASGYTFTGYYMHWVRQAPGQGLEWMGWINPNSGGTNYAQKFQGRVTMTRATSISTAYMELSRLRFDDTAVYYCARGGSRGWSLDYWGQGTLVTVSS
VL: DIQMTQSPSSLSASVGDRVTITCQASQDISNYLNWYQQKLGKAPKLLIYDASNLETGVPSRFSGSGSGTDFSLTISSLQPEDIATYYCQQYETFGQGTKLEIK
B6: G001_LD_V07A_VRC01c_40 (antibody, V domains shown)
VH: not shown
VL: DIQMTQSPSSLSASVGDRVTITCQASQDISNYLNWYQQKPGKAPKLLIYDASNLETGVPSRFSGSASGTESSFTISSLQPEDIATYYCQQYETFGPGTKVDIK
B7: G001_gp1_V07_VRC01c_92 (antibody, V domains shown)
VH: QVQLVQSGAEVRKPGASVKVSCKASGYTFTDSYMHWVRQAPGQGLEWMGWINPNSGGTNYAQKFQGRVTMTRDTSITTAYMELSRLRFDDTAIYYCATVATIAAPWAFDYWGQGALVTVSS
VL: DIQMTQSPSSLSASVGDRVSITCQASQDINNYLNWYQQKPGKAPKLLIYDVSNLQTGVPSRFSGRGSGTDFTFTISSLQPEDSATYYCQQYERFGQGTKLEIK
B8: G001_LD_V07A_VRC01c_41 (antibody, V domains shown)
VH: QVQLVQSGAEVKKPGASVRVSCRASGYTFSDYYIHWVRQAPGQGLEWMGWINPTSGGTNYAQRFQGRVTMTRDTSISTAYMELSRLRSDDTAVYYCARNLGNSGWYFAWGQGTLVTVSS
VL: DIQMTQSPSTLSASVGDRVTITCRASQSISSWLAWYQQKPGKAPKLLIYKASSLESGVPSRFSGSGSGTEFTLTISNLQPDDFGTYYCQQYETFGQGTKVEIK
B9: G001_gp1_V07_VRC01c_2021-0044 (antibody, V domains shown)
VH: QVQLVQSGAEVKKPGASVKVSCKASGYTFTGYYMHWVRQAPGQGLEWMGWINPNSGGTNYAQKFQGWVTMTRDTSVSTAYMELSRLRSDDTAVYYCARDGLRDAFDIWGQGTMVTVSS
VL: QSALTQPASVSGPPGQSITISCTGTSSDFGGHNSVSWYQQHPGKAPKLMIYDVSNRPSGVSNRFSGSKSGNTASLTISGLQAEDEADYYCSSYKVFGGGTKLTVL
B10: G001_gp1_V07_VRC01c_97 (antibody, V domains shown)
VH: QVQLVQSGAEVKKPGASVKVSCKASGYSFTDYYMHWVRQAPGQGLEWMGWINPNSGGTNYAQKFQGRVTMTRDTSISTAYMELSRLRSDDTAVYYCASDVEMANRGGWKFDYWGQGTLVTVSS
VL: QSALTQPASVSGSPGQSITISCTGTSSDVGSYNLVSWYQQHPGTAPKLMIYEVSKRPSGVSNRFSGSKSGNTASLTISGLQAEDEADYYCCSYEVFGGGTKLTVL

molecular target: eOD-GT8 (engineered outer domain germline-targeting version 8), monomer (HIV-1 gp120 engineered outer domain, …)

Question: Does B1 bind?
Answer: binds

Question: Does B2 bind?
Answer: binds

Question: Does B3 bind?
Answer: binds

Question: Does B4 bind?
Answer: binds

Question: Does B5 bind?
Answer: binds

Question: Does B6 bind?
Answer: binds

Question: Does B7 bind?
Answer: binds

Question: Does B8 bind?
Answer: binds

Question: Does B9 bind?
Answer: binds

Question: Does B10 bind?
Answer: binds
